# Patent US20170000909
# T1: Peptide 1
# T1 chain: GPLGLAGKWAAAAKAAAAK
# T2: M1 micelle of fluorescein labelled PPA-1 (not fully specified)
# T2 chain: GPLGLAGKWAAAAKAAAAK
# T3: M4 micelle
# T3 chain: GPLGLAGKWAAAAKAAAAK
# B1: matrix-metalloproteinase 9 (protein)
# chain: MRTPRCGVPDLGRFQTFEGDLKWHHHNITYWIQNYSEDLPRAVIDDAFARAFALWSAVTPLTFTRVYSRDADIVIQFGVAEHGDGYPFDGKDGLLAHAFPPGPGIQGDAHFDDDELWSLGKGVVVPTRFGNADGAACHFPFIFEGRSYSACTTDGRSDGLPWCSTTANYDTDDRFGFCPSERLYTQDGNADGKPCQFPFIFQGQSYSACTTDGRSDGYRWCATTANYDRDKLFGFCPTRADSTVMGGNSAGELCVFPFTFLGKEYSTCTSEGRGDGRLWCATTSNFDSDKKWGFCPDQGYSLFLVAAHEFGHALGLDHSSVPEALMYPMYRFTEGPPLHKDDVNGIRHLYGPRPEPEPRPPTTTTPQPTAPPTVCPTGPPTVHPSERPTAGPTGPPSAGPTGPPTAGPSTATTVPLSPVDDACNVNIFDAIAEIGNQLYLFKDGKYWRFSEGRGSRPQGPFLIADKWPALPRKLDSVFEERLSKKLFFFSGRQVWVYTGASVLGPRRLDKLGLGADVAQVTGALRSGRGKMLLFSGRRLWRFDVKAQMVDPRSASEVDRMFPGVPLDTHDVFQYREKAYFCQDRFYWRVSSRSELNQVDQVGYVTYDILQCPED
# Columns and labels:
# Peptide 1 = biological target: T1, Peptide 1
# [1] = biological target: T2, M1 micelle of fluorescein labelled PPA-1
# M4 micelle = biological target: T3, M4 micelle
protein,measurement,setting,value
B1,MMP-9 cleavage efficiency (RP-HPLC after 24 hrs),Peptide 1,quantitative
same,MMP-9 cleavage efficiency (RP-HPLC after 24 hrs),[1],estimated to be 41%
same,Michaelis-Menten kinetics (Kcat and KM) from fluorescein signal increase upon cleavage of the Dabcyl label,M4 micelle,this substrate for MMP-9 is comparable to standard substrate
